The values below come from publication PMC10397247.

One assay has as its target T1, 4H457-bA.
T1 chain: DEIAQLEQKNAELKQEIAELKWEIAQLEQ
In words: two-hybrid library CCNG1.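 Further: natural log of median RNA to DNA barcode read ratio; higher means stronger binding.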

The target in a further assay is T2, 4H797-bA.
T2 chain: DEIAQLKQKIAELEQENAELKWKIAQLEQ
Put plainly: two-hybrid library CCNG1.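 Further: natural log of median RNA to DNA barcode read ratio; higher means stronger binding.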

In the next assay the target is T3, 4H346-bA.
T3 chain: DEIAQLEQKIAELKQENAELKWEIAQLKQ
In words: two-hybrid library CCNG1.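 Further: natural log of median RNA to DNA barcode read ratio; higher means stronger binding.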

The target of another assay is T4, 4H918-bA.
T4 chain: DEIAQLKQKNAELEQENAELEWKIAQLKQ
In words: two-hybrid library CCNG1.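 Further: natural log of median RNA to DNA barcode read ratio; higher means stronger binding.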

Another assay has as its target T5, 4H683-bA.
T5 chain: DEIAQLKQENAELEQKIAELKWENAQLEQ
Put plainly: two-hybrid library CCNG1.

A further assay addresses T6, 4H953-bA.
T6 chain: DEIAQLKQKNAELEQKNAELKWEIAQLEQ
Put plainly: two-hybrid library CCNG1.

The target in a further assay is T7, 4H855-bA.
T7 chain: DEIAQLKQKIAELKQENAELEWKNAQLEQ
Put plainly: two-hybrid library CCNG1.

Another assay concerns the target T8, 4H780-bA.
T8 chain: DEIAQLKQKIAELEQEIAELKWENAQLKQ
Put plainly: two-hybrid library CCNG1.

A further assay has as its target T9, 4H968-bA.
T9 chain: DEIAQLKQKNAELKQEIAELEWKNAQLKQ
In words: two-hybrid library CCNG1.

The next assay has as its target T10, 4H754-bA.
T10 chain: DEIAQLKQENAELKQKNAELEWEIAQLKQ
In words: two-hybrid library CCNG1.

The next assay concerns the target T11, 4H575-bA.
T11 chain: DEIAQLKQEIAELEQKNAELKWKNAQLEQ
Put plainly: two-hybrid library CCNG1.

The target of another assay is T12, 4H3926-bA.
T12 chain: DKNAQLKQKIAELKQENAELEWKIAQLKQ
Put plainly: two-hybrid library CCNG1.

In the next assay the target is T13, 4H4073-bA.
T13 chain: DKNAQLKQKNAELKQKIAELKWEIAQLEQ
Put plainly: two-hybrid library CCNG1.

For another assay, the target named is T14, O9-bS.
T14 chain: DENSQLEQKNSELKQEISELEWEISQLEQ
In words: two-hybrid library CCNG1.

Another assay addresses T15, O8-bS.
T15 chain: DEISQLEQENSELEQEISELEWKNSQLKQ
In words: two-hybrid library CCNG1.

Another assay addresses T16, O7-bS.
T16 chain: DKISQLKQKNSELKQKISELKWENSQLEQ
Put plainly: two-hybrid library CCNG1.

The next assay deals with T17, O8.
T17 chain: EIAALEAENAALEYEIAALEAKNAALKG
In words: two-hybrid library CC0. Conditions: mean of both orientations.

For another assay, the target named is T18, O7.
T18 chain: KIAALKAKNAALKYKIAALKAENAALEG
Put plainly: two-hybrid library CC0. Conditions: mean of both orientations.

A further assay addresses T19, O9.
T19 chain: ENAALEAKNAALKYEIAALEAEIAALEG
Put plainly: two-hybrid library CC0. Conditions: mean of both orientations.

The target in a further assay is T20, P11-AA.
T20 chain: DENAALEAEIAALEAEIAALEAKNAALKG
In words: two-hybrid library CCmax. Conditions: mean of both orientations.

Another assay has as its target T21, P7-AA.
T21 chain: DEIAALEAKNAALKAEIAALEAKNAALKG
In words: two-hybrid library CCmax. Conditions: mean of both orientations.

The target in a further assay is T22, zCON9_A.
T22 chain: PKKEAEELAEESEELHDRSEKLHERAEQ
In words: two-hybrid library CCmax. Conditions: mean of both orientations.

The next assay has as its target T23, zCON9_D.
T23 chain: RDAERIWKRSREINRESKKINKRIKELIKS
In words: two-hybrid library CCmax.

A further assay concerns the target T24, P10-AA.
T24 chain: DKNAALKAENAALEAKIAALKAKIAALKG
Put plainly: two-hybrid library CCmax.

The target in the next assay is T25, P9-AA.
T25 chain: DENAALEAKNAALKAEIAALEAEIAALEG
Put plainly: two-hybrid library CCmax. Conditions: mean of both orientations.

A further assay addresses T26, P2-AA.
T26 chain: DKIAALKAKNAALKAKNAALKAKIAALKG
In words: two-hybrid library CCmax. Conditions: mean of both orientations.

In a further assay the target is T27, P3-AA.
T27 chain: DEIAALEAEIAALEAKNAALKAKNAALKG
Put plainly: two-hybrid library CCmax. Conditions: mean of both orientations.

The next assay deals with T28, P4-AA.
T28 chain: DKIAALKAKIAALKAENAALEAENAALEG
In words: two-hybrid library CCmax. Conditions: mean of both orientations.

The next assay deals with T29, P12-AA.
T29 chain: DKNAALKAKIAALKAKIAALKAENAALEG
In words: two-hybrid library CCmax. Conditions: mean of both orientations.

A further assay addresses T30, P8-AA.
T30 chain: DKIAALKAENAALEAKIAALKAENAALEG
In words: two-hybrid library CCmax. Conditions: mean of both orientations.

In another assay the target is T31, zCON9_B.
T31 chain: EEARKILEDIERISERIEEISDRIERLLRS
In words: two-hybrid library CCmax. Conditions: mean of both orientations.

For the molecule DEIAQLEQKIAELKQENAELKWEIAQLKQ [4H346-bA], the interaction score with 4H457-bA was -0.833; in the assay with 4H797-bA, -0.562; in the assay with 4H346-bA, 1.48; with 4H918-bA it was -0.428; in the assay with 4H683-bA, 0.357; with 4H953-bA, -1.6. Further, the interaction score with 4H855-bA was 0.0345; with 4H780-bA, -0.692; with 4H968-bA, -0.648; with 4H754-bA, -0.388; with 4H575-bA it was -0.114; with 4H3926-bA, 1.57. In the assay with 4H4073-bA, this molecule registered an interaction score of -0.388.

In the case of DKISQLKQKNSELKQKISELKWENSQLEQ [O7-bS], the interaction score with O9-bS is -1.07; with O8-bS, 0.93; in the assay with O7-bS it was -1.01.

Consider KIAALKAKNAALKYKIAALKAENAALEG [O7], for which the interaction score with O8 is 1.47; with O7, -2.81; in the assay with O9 it was -2.77.

Take DKNAALKAENAALEAKIAALKAKIAALKG [P10-AA]: the interaction score in the assay with P11-AA is 1.43; with P7-AA it was -0.0691; with zCON9_A, -1.58; in the assay with zCON9_D, -1.97; in the assay with P10-AA it was -0.869; with P9-AA, 2.32. Moreover, the interaction score in the assay with P2-AA was -1.38; in the assay with P3-AA, -0.118; with P4-AA, -1.35; with P12-AA it was -1.23; with P8-AA, -1.28; with zCON9_B, -0.0248.
